{
  "source": "patent US20160052997A1",
  "about": "(CELLTRION, published 2016)",
  "binders": {"B1": {"name": "CT149 (antibody, V domains shown)", "VH": "QVQLVQSGAEVKKPGASVKVSCKTSGYSFSTYGVSWVRQAPGQGPEWVGWISAYTGITDYAQKFQGRVTLTTDATTATAFLDLRSLRPDDTATYFCARDKVQGRVEVGSGGRHDYWGQGTLVIVSS", "VL": "EVVLTQSPGTLALPPGERATLSCRASHRVGSTYIAWYQQKSGQAPRRLIYGASNRATDIPDRFSGSGSGTDFTLTIRRLEPEDSAVYYCQQFSVSPWTFGQGTRVEIKR"}},
  "key": {"[1]": {"biological_target": "T1, purified recombinant HA protein of H1N1 (A/California/04/09) (Influenza A virus A/California/04/09 …, UniProt P26140 18-529)"}, "[2]": {"biological_target": "T1, purified recombinant HA protein of H1N1 …", "test": "SPR, Biacore T200, HA captured via anti-6x his tag antibody, 25 C"}},
  "note": "Values joined by “and” are separate entries in the source; they are usually repeats but may differ in a detail not shown here. Identical values can stand only once. Like-named read-outs stand apart in the source and are kept apart here.",
  "data": [
    {"binder": "B1", "values": [
      {"measurement": "Kd", "setting": "[1]", "value": 30.6, "unit": "nM"},
      {"measurement": "Kd", "setting": "[2]", "value": "30.2 nM and 31 nM"},
      {"measurement": "koff", "setting": "[2]", "value": "0.0388 s⁻¹ and 0.0399 s⁻¹"},
      {"measurement": "kon", "setting": "[2]", "value": "1.29e+06", "unit": "M⁻¹ s⁻¹"}
    ]}
  ]
}
